Consider one protein from article PMC6537880 (Analytical chemistry, 2016).

This series deals with the molecule itself. Description: native MS.

B1: AAV8 capsid viral protein VP3 (natural protein)
chain: MAAGGGAPMADNNEGADGVGSSSGNWHCDSTWLGDRVITTSTRTWALPTYNNHLYKQISNGTSGGATNDNTYFGYSTPWGYFDFNRFHCHFSPRDWQRLINNNWGFRPKRLSFKLFNIQVKEVTQNEGTKTIANNLTSTIQVFTDSEYQLPYVLGSAHQGCLPPFPADVFMIPQYGYLTLNNGSQAVGRSSFYCLEYFPSQMLRTGNNFQFTYTFEDVPFHSSYAHSQSLDRLMNPLIDQYLYYLSRTQTTGGTANTQTLGFSQGGPNTMANQAKNWLPGPCYRQQRVSTTTGQNNNSNFAWTAGTKYHLNGRNSLANPGIAMATHKDDEERFFPSNGILIFGKQNAARDNADYSDVMLTSEEEIKTTNPVATEEYGIVADNLQQQNTAPQIGTVNSQGALPGMVWQNRDVYLQGPIWAKIPHTDGNFHPSPLMGGFGLKHPPPQILIKNTPVPADPPTTFNQSKLNSFITQYSTGQVSVEIEWELQKENSKRWNPEIQYTSNYYKSTSVDFAVNTEGVYSEPRPIGTRYLTRNL
In the case of B1, the binding result was “binds”.
